Test results taken from patent publication US20240272170A1 (QUANTUM SI, published 2024).

How the values were obtained:
[1] = molecular target: T1, QP1165 after cleavage to N-terminal isoleucine (IAFLKQRVWK); experiment: on-chip dynamic sequencing of QP1165, PS1875 run, trace Aperture=340501
T1 peptide: IAFLKQRVWK

[2] = molecular target: T2, QP1165 after cleavage to N-terminal leucine (LKQRVWK); experiment: as above
T2 peptide: LKQRVWK

[3] = molecular target: T1, QP1165 after cleavage to N-terminal …; experiment: on-chip dynamic sequencing of QP1165, PS2132 run, trace Aperture=376215
[4] = molecular target: T2, QP1165 after cleavage to N-terminal …; experiment: on-chip dynamic sequencing of QP1165, PS1875 run, trace Aperture=430641
[5] = molecular target: T1, QP1165 after cleavage to N-terminal …; experiment: on-chip dynamic sequencing of QP1165, PS2121 run, trace Aperture=740473
[6] = molecular target: T2, QP1165 after cleavage to N-terminal …; experiment: as above
[7] = molecular target: T1, QP1165 after cleavage to N-terminal …; experiment: on-chip dynamic sequencing of QP1165, PS2123 run, trace Aperture=501326
[8] = molecular target: T2, QP1165 after cleavage to N-terminal …; experiment: as above
[9] = molecular target: T2, QP1165 after cleavage to N-terminal …; experiment: on-chip dynamic sequencing of QP1165, PS2132 run, trace Aperture=1826247
[10] = molecular target: T1, QP1165 after cleavage to N-terminal …; experiment: on-chip dynamic sequencing of QP1165, PS2121 run, trace Aperture=1683362
[11] = molecular target: T2, QP1165 after cleavage to N-terminal …; experiment: as above
[12] = molecular target: T2, QP1165 after cleavage to N-terminal …; experiment: on-chip dynamic sequencing of QP1165, PS1875 run, trace Aperture=1377116
Experimental: (§1) The semiconductor chip was placed in the sequencing device and a chip check was performed to test electronic circuit function and to optimize laser coupling alignment. The chip was then removed from the device socket and the chip was washed twice with 50 μL of 70% isopropanol, followed by four washes with 30 μL of wash buffer (50 mM MOPS pH 8.0, 60 mM potassium acetate, 50 mM glucose, 20 mM magnesium acetate, and surfactant mix) through a flow cell attached to the chip. A second chip check was then performed. The laser was then blocked via an integrated software-controlled shutter, peptide complex was added to a final concentration of 1-10 nM and mixed thoroughly, and the chip was incubated for 15 min. The chip was then washed six times with wash buffer, followed by addition of an imaging solution (wash buffer with 5 mM Trolox and an oxygen scavenging system). The laser was unblocked and the occupancy percentage (target 10-30%, Poisson distributed) was recorded by acquiring a photobleaching signal from a fluorophore attached to the peptide complex during 5 min of laser illumination. […] Data was recorded for 15 min. The laser was then blocked briefly and aminopeptidases were added to the sequencing reaction via the flow cell and mixed thoroughly (final concentration 2-8 μM PhTET2 and/or 20-80 μM PhTET3, as indicated according to the experiment). The laser was then unblocked, and data was recorded for 10 hours. For all runs, 30 μL of mineral oil was added to fluid reservoirs at each port of the flow cell to prevent evaporation during the run.

[13] = molecular target: T1, QP1165 after cleavage to N-terminal …; experiment: on-chip dynamic sequencing of QP1165, 500 nM PS1875 plus five recognizers, 7305 alignments
[14] = molecular target: T2, QP1165 after cleavage to N-terminal …; experiment: as above
[15] = molecular target: T1, QP1165 after cleavage to N-terminal …; experiment: on-chip dynamic sequencing of QP1165, 500 nM PS1875 plus five recognizers, 3369 alignments
[16] = molecular target: T1, QP1165 after cleavage to N-terminal …; experiment: on-chip dynamic sequencing of QP1165, 500 nM PS2132 plus five recognizers, 36192 alignments
[17] = molecular target: T2, QP1165 after cleavage to N-terminal …; experiment: as above
[18] = molecular target: T1, QP1165 after cleavage to N-terminal …; experiment: on-chip dynamic sequencing of QP1165, 500 nM PS1875 plus five recognizers, 11565 alignments
Experimental: as §1

[19] = molecular target: T2, QP1165 after cleavage to N-terminal …; experiment: as above
Experimental: as §1

[20] = molecular target: T1, QP1165 after cleavage to N-terminal …; experiment: on-chip dynamic sequencing of QP1165, 500 nM PS2123 plus five recognizers, 62511 alignments
[21] = molecular target: T2, QP1165 after cleavage to N-terminal …; experiment: as above

B1: PS1223 (designed binder)
single polypeptide, two PS961 units in tandem: MPTAASATESAIEDTPAPARPEVDGRTKPKRQPRYHVVLWDDDDHTYQYVVVMLRSLFGHPPSRGYRMAKEMDTQGRVIVLTTTREHAELKRDQIHAFGRDRLLARSKGSMKASIEAEEGSAGSAAGSGEFGSAGSAAGSGEFGSAGSAAGSGEFMPTAASATESAIEDTPAPARPEVDGRTKPKRQPRYHVVLWDDDDHTYQYVVVMLRSLFGHPPSRGYRMAKEMDTQGRVIVLTTTREHAELKRDQIHAFGRDRLLARSKGSMKASIEAEE
notes: dye-labelled recognizer for N-terminal L, I, V in the six-recognizer runs; also called PS1223 (LIV)
PD of a recognition segment in an example trace [1]: 0.49 s
PD of a recognition segment in an example trace [2]: 0.36 s
PD of a recognition segment in an example trace [3]: 0.49 s
PD of a recognition segment in an example trace [4]: 0.64 s
PD of a recognition segment in an example trace [5]: 0.5 s
PD of a recognition segment in an example trace [6]: 0.49 s
PD of a recognition segment in an example trace [7]: 0.51 s
PD of a recognition segment in an example trace [8]: 0.39 s
PD of a recognition segment in an example trace [9]: 0.52 s
PD of a recognition segment in an example trace [10]: 0.52 s
PD of a recognition segment in an example trace [11]: 0.28 s
PD of a recognition segment in an example trace [12]: 0.68 s
IPD (interpulse duration) [13]: 8.02 s
PD (pulse duration) [13]: 1.15 s
IPD (interpulse duration) [14]: 15.4 s
PD (pulse duration) [14]: 0.65 s
IPD (interpulse duration) [15]: 7.33 s
PD (pulse duration) [15]: 1.18 s
IPD (interpulse duration) [16]: 9.74 s
PD (pulse duration) [16]: 0.66 s
IPD (interpulse duration) [17]: 17.4 s
PD (pulse duration) [17]: 0.54 s
IPD (interpulse duration) [18]: 8.79 s
PD (pulse duration) [18]: 1.01 s
IPD (interpulse duration) [19]: 17.1 s
PD (pulse duration) [19]: 0.59 s
IPD (interpulse duration) [20]: 9.24 s
PD (pulse duration) [20]: 0.73 s
IPD (interpulse duration) [21]: 17.3 s
PD (pulse duration) [21]: 0.54 s
